In patent US20250281556A1, “PRODUCTION OF RNA POLYNUCLEOTIDES ENCODING PICORNAVIRUS” (priority 2022, published 2025):

How the values were obtained:
[1] = system: ~260 nt segment of the 5′-end of the viral genome sequence (virus start); assay: Ribozyme cleavage efficiency, test construct with longer ~260 nt virus start; assay type: biochemical, CVA21; settings: gel electrophoresis
Description: (§1) Experiments were performed to optimize the ribozyme sequence at the 5′ junctional cleavage sequence region of the in vitro transcription template for CVA21 viral genome based on the test construct design according to FIG. 10B. Initially, a short, about 60 nt segment(S) of the 5′-end of the viral genome (“virus start”) was used to identify ribozymes that yielded high cleavage efficiency. […] Specifically, for an initial candidate ribozyme that yielded >90% cleavage efficiency in the test construct with short ˜60 nt virus start, it yielded only about 10-35% cleavage efficiency upon incorporation of the expression construct for the full-length viral genome. […] Thus, the test construct was redesigned to include a longer, about 260 nt segment (L) of the 5′-end of the viral genome sequence. […] Therefore, the test construct “L” with longer virus start better recapitulates the cleavage efficiency of the candidate ribozyme when incorporated into the full-length viral genome.
Further optimization was performed in the DNA template encoding ENT27 ribozyme, including: • Replacing the P2 motif “TTGGTT” of ENT27-WT with “TTTGTT” (ENT27-V1) or “TTTATT” (ENT27-V2, ENT27-V3, ENT27-V4) to complement the 5′ end of the viral start “UUAAA” after ribozyme cleavage. • Inserting additional nucleotides “GAAA” (ENT27-V3) or “ACGAGAAATCGT” (ENT27-V4) into the P3 stem insert of the ENT27 ribozyme. These optimizations are illustrated in FIG. 11A and FIG. 11B.
The cleavage efficiencies of these optimized ENT27 ribyzomes were analyzed using the test constructs with longer ˜260 nt virus start. The leader sequence used in these constructs include L1 (SEQ ID NO: 135) and L2 (SEQ ID NO: 136).

[2] = system: full-length CVA21 viral genome RNA; assay: Ribozyme cleavage efficiency in the full-length CVA21 viral genome expression construct; assay type: biochemical; settings: L1 leader sequence, RT-dPCR and RNA digest methods, vs control vector CVA21v1
Description: as §1
ENV27-V2 ribozyme and L1 leader sequence was then incorporated into the CVA21 viral genome expression construct and tested for cleavage efficiency using both RT-dPCR and RNA digest methods.

| Molecule | cleavage efficiency [1] | cleavage efficiency [2] [%] |
| --- | --- | --- |
| ENV27-V3: ENV27 ribozyme variant, DNA SEQ ID NO: 133, TTTATT and GAAA inserted into P3 stem insert (nucleic acid, expressed or natural sequence) DNA: ACTCGTTTGAGCGAGTATAAACAGTTTATTAGGCTCAAAGCGGAGAGCAGAGAAATCTGCTCTCG | improved the cleavage efficiency |  |
| ENV27-V2: ENV27 ribozyme variant, DNA SEQ ID NO: 132, P2 motif TTTATT; tested with L1 leader sequence (nucleic acid, expressed or natural sequence) DNA: ACTCGTTTGAGCGAGTATAAACAGTTTATTAGGCTCAAAGCGGAGAGCAGATCTGCTCTCG | much better cleavage efficiency | > 90 |
| ENT27-WT: ENV27 ribozyme, corresponding DNA sequence SEQ ID NO: 130, P2 motif TTGGTT (nucleic acid, further chemistry not given here) DNA: ACTCGTTTGAGCGAGTATAAACAGTTGGTTAGGCTCAAAGCGGAGAGCAGATCTGCTCTCGTCCAA | promising candidate |  |
| ENV27-V4: ENV27 ribozyme variant, DNA SEQ ID NO: 134, TTTATT and ACGAGAAATCGT inserted into P3 stem insert (nucleic acid, expressed or natural sequence) DNA: ACTCGTTTGAGCGAGTATAAACAGTTTATTAGGCTCAAAGCGGAGAGCAGAACGAGAAATCGTTCTGCTCTCG | improved the cleavage efficiency |  |
